Target: Cyclosorus parasiticus chalcone synthase 1 (CpCHS1) (Cyclosorus parasiticus)
Test: crystal structure; sitting-drop vapor diffusion at 20°C; 0.2 M sodium chloride, 0.1 M Tris-HCl pH 8.0, 20% w/v PEG 4000; apo form at 1.9 Å, complexes with naringenin and with naringenin + CoA at 2.4 Å; molecular replacement with 6DXB

stoichiometry N: 2
Substance: Cyclosorus parasiticus chalcone synthase 1 (CpCHS1) (enzyme)

— article PMC8580882
